US20250264433A1 (STATE OF ISRAEL MINISTRY OF AGRICULTURE AND RURAL …, published 2025)

Biological target: Native EspB of wild-type EPEC O127:H6 strain E2348/69
Sequence (Q05129 whole entry): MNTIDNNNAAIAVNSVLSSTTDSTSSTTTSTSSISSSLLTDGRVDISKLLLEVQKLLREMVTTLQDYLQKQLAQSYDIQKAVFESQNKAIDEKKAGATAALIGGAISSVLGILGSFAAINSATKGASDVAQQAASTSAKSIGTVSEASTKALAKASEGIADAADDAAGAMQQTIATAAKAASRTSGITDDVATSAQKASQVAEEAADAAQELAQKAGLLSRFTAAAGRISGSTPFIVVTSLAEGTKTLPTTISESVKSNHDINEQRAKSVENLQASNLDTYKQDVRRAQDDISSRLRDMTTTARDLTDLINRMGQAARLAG

B1: mAb-EspB-B7 (antibody, V domains shown)
VH: EVQLLESGGGLVQPGGSLRLSCAASGFTFSHYAMNWVRQAPGKGLEWVSAINSNGDSTYYPDTVKDRFTISRDNSKNTLYLQMNSLRAEDTAVYYCARDRRAGYFDYWGQGTLVTVSS
VL: DIVLTQPPSASGTPGQRVTISCSGSRDNIGKNYVSWYQQLPGTAPKLLIYRNNQRPSGVPDRFSGSKSGTSASLAISGLRSEDEADYYCSAWDTSLNAYVFGPGTQLTVL
notes: also called mAb-B7; anti-EspB antibody
signal for EPEC WT relative to the ΔespB strain: 36%
